The values below come from patent publication US12577311 (dated 2026).

Numbering of substitutions follows the chain as printed.

B1: anti-CAIX (G36) CAR (scFv, V domains shown)
VH: EVQLVQSGGGVVQPGGSLRLSCAASGFPFSSYAMSWVRQAPGKGLEWVSAISANGGTTYYADSVKGRFTISRDNSKNTLYLQMNSLRAEDTAVYYCANNGNYRGAFDIWGQGTMVTVSS
VL: QSVLTQPPSVSGAPGQRVTISCTGSSSNIGAGFDVHWYQQLPGTAPKLLIYGNTNRPSGVPDRFSGSKSGTSASLAITGLQAEDETDYYCQSYDSRLSAWVFGGGTKLTVLG
B2: G125 (antibody, V domains shown)
VH: EVQLVESGGGVVQPGRSLRLSCAASGFTFSSYGMHWVRQAPGKGLEWVSAISGSGGSTYYADSVKGRFTISRDNAKNTLYLQMNSLRAEDTAVYYCARAAVTGGFDPWGQGTLVTVSS
VL: QPGLTQPPSVSVAPGQTARITCGGDNIGRKSVHWYQQRPGQAPILVIRDDRDRPSGIPERFSGSSSVNTATLIISRVEAGDEADYYCQVWDSSSKHYVFGPGTKVTALG
B3: G57 (antibody, V domains shown)
VH: QVQLVQSGGGVVQPGRSLRLSCAASGFTFSSYGMHWVRQAPGKGLEWVAVISYDGSNKYYADSVKGRFTISRDNSKNTLYLQMNSLRAEDTAVYYCAREAPYSSSLDAFDIWGQGTMVTVSS
VL: QSVLTQPPSVSGAPGQRVTISCTGSSSNIGRGYNVHWYQQLPGTAPKLLIYGNSNRPSGVPDRFSGSSSGNTASLTITGAQAEDEADYYCHSRDNNGHHIFGGGTKLTVLS
B4: G27 (antibody, V domains shown)
VH: QVTLKESGGGVVQPGTSLRLSCAASGFTFSNYAMTWVRQAPGKGLEWVGLISYDGSVTHYTDSVKGRFTISRDNAKNSLYLQMNTLRADDTAVYYCARGSGYQEHWGQGTLVTVSS
VL: LPVLTQPPSVSVAPGQTARITCGGNNIGSKSVEWYQQKPGQAPVLVIYYDSDRPSGIPERFSGSNSGNTATLTISRVEAGDEADYYCQVWDSSSDHHVVFGGGTKLTVLG
B5: G39 (antibody, V domains shown)
VH: not shown
VL: QSVLTQPPSVSGAPGQRVTISCTGSSSNIGRGYNVHWYQQLPGTAPKLLIYDNTNRPSGVPARFSGSKSATSASLAITGLQADDEADYYCQSYDSGLRWVFGGGTKLTLLR
B6: G6 (antibody, V domains shown)
VH: QVQLVQSGGGLVQPGGSLRLSCAASEFTFGTYAMTWVRQAPGKGLEWVSAVSGSGGSTYYADSVKGRFTISRDNSRNTLYLQMNSLRADDTAVYYCARGPVLRYGFDIWGQGTMVIVSS
VL: QSVLTQPPSVSGAPGQRITISCTGSRSNIGADYDVHWYQQLPGTAPKLLIYANNNRPSGVPGRFSASKSGTSASLAISGLQAEDEADYYCQSYDSSLRAWVFGGGTKLAVLG
B7: G119 (antibody, V domains shown)
VH: B1 VH with E1Q, V11L, T116I
VL: B1 VL with F33Y, T78I, E83D, T86A, R96T, S98R, A99V, V101M
B8: G9 (antibody, V domains shown)
VH: QVQLQESGGGLVQPGGSLRLSCAASGFTFSSYAMSWVRQAPGKGLEWVSAISGSGGSTYYADSVKGRFTISRDNSKNTLYLQMNSLRAEDTAVYYCARSHSSGGFDYWGQGTLVTVSS
VL: B1 VL with A31R, F33Y, D34N, T86G, R96S
B9: G10 (antibody, V domains shown)
VH: B1 VH with E1Q, V11L
VL: QSVLTQPPSVSGAPGQRVTISCTGSSSNIGAGYDVHWYQQLPGTAPKLLIYGNSNRPSGVPDRFSGSKSGSSASLAITGLQAEDEAHYYCQSYDRSLSWVFGGGTKLTVLG
B10: G45 (antibody, V domains shown)
VH: B1 VH with E1Q, V11L, Q13R, M114T
VL: QSVLTQPPSVSGAPGQRITISCTGSSSNIGAGYDVHWYQQVPGKAPKVVIYGNNNRPSGVPDRFSGSKSGASASLAITGLQTEDEADYYCQSYDKSLTWVFGGGTKVTVLG
B11: G106 (antibody, V domains shown)
VH: B1 VH with V11L, P28T, M114T
VL: B1 VL with K47R, T54N, Y89F, R96S, L108V, G112R
B12: G36 (antibody, V domains shown)
VH: B1 VH
VL: B1 VL
B13: G37 (antibody, V domains shown)
VH: B1 VH with E1Q
VL: B6 VL with G62D, A66G, S78T, A86T, Y89F, R98S, L108V, A109T
B14: G40 (antibody, V domains shown)
VH: B8 VH with Q5V, E6Q, R98T, S99Y, H100G, S101D, S102Y, G104S, F105L
VL: B6 VL with I18V, R26S, D32G, G62D, A66G, S78T

The target of the first experiment is T1, PE labeled CAIX protein (UniProt Q16790 38-414). As to the kind of experiment: FACS binding.
One may read the EC50 as the concentration at which the effect is half-maximal. Low values mean a more potent agent, high ones a less potent agent. B1 registered an EC50 of 0.132 µg/mL.

The next experiment deals with T2, CAIX (UniProt Q16790 38-414).
Experiment: not given
The term Kd denotes the concentration at which binding is half-saturated. Lower therefore signals tighter binding. The molecule B2 had a Kd of 40.3 nM.

B3 had a Kd of 4.25 nM.

Molecule B4 yielded a Kd of 25.1 nM. Compared with the last molecule, the Kd is about 5.9-fold higher.

In the case of B5, the Kd was found to be 3.43 nM. This Kd is about 7.3-fold lower than that of the molecule before.

Turning to B6, binding was characterised by a dissociation constant (Kd) of 25.9 nM.

The molecule B7 registered a Kd of 1.49 nM.

In the case of B8, the Kd is 99.6 nM.

With B9, binding was put at a Kd of 1.62 nM.

B10 had a Kd of 12.5 nM.

For B11, binding was put at a Kd of 3.2 nM.

In turn, B12 showed a Kd of 3.22 nM. This Kd and that of the molecule before are within 1.5-fold of each other.

Take B13: the affinity, expressed as Kd, was 1.89 nM.

B14 had a Kd of 21.8 nM. This Kd is about 12-fold higher than that of the molecule before.

Another experiment deals with T1, PE labeled CAIX protein. Description: FACS binding. The source holds these as a separate data set. For orientation: In flow cytometry, cells or beads pass a laser one at a time.
B1: it took 0.132 µg/mL to reach a half-maximal effect (EC50).

For the next experiment, the target named is T2, CAIX.
Experiment: not given
The source holds these as a separate data set.
B2: the affinity, expressed as Kd, was 40.3 nM.

As for B3, the Kd was 4.25 nM.

As for B4, the Kd is 25.1 nM.

Turning to B5, the Kd was determined as 3.43 nM.

Turning to B6, binding was put at a Kd of 25.9 nM.

The molecule B7 gave a Kd of 1.49 nM.

As for B8, the equilibrium dissociation constant (Kd) is 99.6 nM.

Turning to B9, the Kd was determined as 1.62 nM.

As to B10, the Kd amounted to 12.5 nM.

B11 registered a Kd of 3.2 nM.

With B12, the Kd was determined as 3.22 nM. The Kd values of the last two molecules are within 1.5-fold of each other.

In turn, B13 yielded a Kd of 1.89 nM.

As to B14, the affinity, expressed as Kd, was 21.8 nM.

The target of another experiment is T2, CAIX.
Experiment: not given
The source holds these as a separate data set.
Consider B2, for which the Kd was found to be 40.3 nM.

Regarding B3, the Kd amounted to 4.25 nM.

B4 yielded a Kd of 25.1 nM. Compared with the last molecule, the Kd is about 5.9-fold higher.

Turning to B5, the Kd is 3.43 nM.

On to B6, for which the affinity, expressed as Kd, was 25.9 nM.

Molecule B7 returned a Kd of 1.49 nM.

B8: the Kd turned out to be 99.6 nM.

Regarding B9, the Kd was 1.62 nM.

B10 yielded a Kd of 12.5 nM. Compared with the last molecule, the Kd is about 7.7-fold higher.

B11 gave a Kd of 3.2 nM.

In turn, B12 returned a Kd of 3.22 nM.

As for B13, binding was characterised by a dissociation constant (Kd) of 1.89 nM.

For the molecule B14, the Kd was determined as 21.8 nM.
